The numbers were not newly measured in article PMC7662479, which cites them from elsewhere.

The Kd is the equilibrium constant for the complex coming apart.

For the series, the target named is Angiopoietin-2 (Homo sapiens) (UniProt O15123).
Chain of UniProt O15123 (O15123 19-496): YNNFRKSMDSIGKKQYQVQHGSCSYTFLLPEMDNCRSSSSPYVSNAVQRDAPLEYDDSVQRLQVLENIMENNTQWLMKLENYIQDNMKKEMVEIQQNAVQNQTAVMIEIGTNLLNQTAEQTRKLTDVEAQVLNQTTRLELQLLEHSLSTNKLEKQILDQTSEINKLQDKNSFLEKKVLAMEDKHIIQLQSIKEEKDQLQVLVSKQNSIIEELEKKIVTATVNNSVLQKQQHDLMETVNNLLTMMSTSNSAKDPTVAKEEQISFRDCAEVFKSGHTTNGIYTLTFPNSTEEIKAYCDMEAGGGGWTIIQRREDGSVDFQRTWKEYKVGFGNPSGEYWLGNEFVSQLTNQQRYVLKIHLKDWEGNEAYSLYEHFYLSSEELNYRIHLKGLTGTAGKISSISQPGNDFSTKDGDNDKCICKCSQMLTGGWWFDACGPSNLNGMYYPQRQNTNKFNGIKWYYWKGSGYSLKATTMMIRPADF

Consider nesvacumab, for which the Kd was 0.024 nM.
